Here are results for one sequence from paper PMC5472775.

pKd: −log10 of the molar value.

Data set [1] deals with CENP-C-CD R522A R522A (Homo sapiens) (UniProt Q03188). As to the kind of experiment: EMSA. As to conditions: apparent Kd; 200 nM nucleosome; EMSA: 200 nM nucleosomes, 20 mM Tris-Cl pH 7.5, 1 mM EDTA, 1 mM DTT, on ice 1 h, 5% native PAGE; footprinting at room temperature, 5 min. A general note: A gel shift assay detects complexes by their altered migration in electrophoresis.

In data set [2] the target is CENP-C-CD R521A R521A (Homo sapiens) (UniProt Q03188). As to the kind of experiment: EMSA. As to conditions: apparent Kd; 200 nM nucleosome; EMSA: 200 nM nucleosomes, 20 mM Tris-Cl pH 7.5, 1 mM EDTA, 1 mM DTT, on ice 1 h, 5% native PAGE; footprinting at room temperature, 5 min.

One may read the pKd as the negative decadic logarithm of the Kd, by convention in mol/L. Turning to “ATCAAATATCCACCTGCAGATTCTACCAAAAGTGTATTTGGAAACTGCTCCATCAAAAGGCATGTTCAGCTCTGTGAGTGAAACTCCATCATCACAAAGAATATTCTGAGAATGCTTCCGTTTGCCTTTTATATGAACTTCCTCGAT (double strand) [CENP-A NCP, Cy5-H2B, 147 bp DNA]”, the pKd was 6.18 in data set [1] and 6.57 in data set [2].
